A short description of this data set: soluble on expression in E. coli; label from the status in PepcDB or PDB records.
“MPFEKYTVPVSGRSDAAIEEELTRLRAELAAEYDLREVVHRFGESDFTFLSVLDSYALLDRIDPAAFVKDEQMPYWAEIWPAAVTLSRQIVETGELAGKSVLELGAGVGMASIAAARSGARVLCTDYSTEALRFVAYNAMKNRVPLDTARLDWRMVKGAEKFDAVIAADVLYERVNLLPIVTAIDALLAPGGAAYIADPRRRLADQFLELVHENGFEVAETRMFDAEGDQTVAVTIYKLQRLKALEHHHHHH”: the “soluble on expression in E. coli” value is “soluble”.
For “MKLVPDAFHPGYWGPLLSAHMPRTAYLPVSESFISALQRDSLNEADAERLQSDFSELIQGLSHAMDYLRTDHSTSEGFCPKLNGKLPYDAAWILGRHAPCCYTWNEAMMVLRASSRIHEPTRTSWQGSFCLVVQRWEQIHPANEFRCFISSCRVIAICQRHPDTPYPFLARERDRLVNAMVSFYETHVRPLHPAYAECILDCYLDDSQSVRTLGIDAWSDDALLLFEVSEMEALRAQAAAAFPGQHSDPDGHRQSEAPGEDATGATVSFRSVAQGFAAVPWGWSEKLPLELGDDFLRARIQRNASD”, the “soluble on expression in E. coli” value is “not soluble”.
The value for “MGSDKIHHHHHHMTKKITTHLESGLFKGKPRQKTVQHRNATTTPEMRQFIQQSDYSVSQLSKILNISEATVRKWRKRDSIDNTPNTPHKLNTTLSPMEEYVMLGLRYQLKMPLDRLLKVTQEFINPNVSRSGLARCLKRFGVSKLDEFDSPFVPEKFFNQLPITQGADIQTYTVNPKTLADTLSLPSPDPDNVVQVVSLSIPPQLTKQQAYSVLLGVDFKSDWVYLDIYQDSHTQASNRYITHVLKHGPFHLRKLLVRNYHTFLARFPGASQPAAVSTSTIDAAGSQHQITEPQLSNGDSYEPIQ” was “not soluble”; that for “MSVEEVSKKFEENVSVDDTTATPKTVLSDSAHFDVKHPLNTKWTLWYTKPAVDKSESWSDLLRPVTSFQTVEEFWAIIQNIPEPHELPLKSDYHVFRNDVRPEWEDEANAKGGKWSFQLCGKGADIDELWLCTLLAVIGETIDEDDSQINGVVLSIRKGGNKFALWTKCEDKEPLLRIGGKFKQVLKLTDDGHLEFFPHCSANGRHPQPSITL” was “soluble”.
The value for “MLKLPPLSLYIHIPWCVQKCPYCDFNSHALKGDVPHQEYVDHLLADLDADLPLAGGRALHSIFIGGGTPSLLSAEAMQALLDGVRARIPLTPDAEITMEANPGTVEADRFSGYQRAGINRISIGVQSFDPQKLTRLGRIHGPEEAKRAAQLATGLKLRSFNLDLMHGLPDQSLDEALDDLRQAIALNPPHLSWYQLTIEPNTLFSSRPPTLPDDDALWDIYEQGHALLSAAGYEQYETSAYAKPGYQCQHNLNYWRFGDYLGIGCGAHGKLTFSDGHILRTVKVRHPRGYMQGTYMDKQHDVANDDRPFEFFMNRFRLLEAAPRADFTAYTGLEEHSIRPQLDQALAQGYLTETATHWQITEHGKLFLNSLLELFLAEELEHHHHHH” was “not soluble”; that for “MVARNDNLKPFSERSVDEARELGRKGGKASGEVRRKKADLKRAISIVLSSEVPSSKMAKTLKEMGYENTNEMAMVLSMTQKAIKGDVKAASWISNIIQPAKVEHEVEMSVGVDEKRKVAEEYIRGLFNNDTGNSTEENN” was “not soluble”; that for “MGSDKIHHHHHHMVKTARRRGDDAVRGPGGVLVLGAASWNRMIHVETLPQGASATIFDARETQGAGSTGVGKAMGLAALGYQPTLHCALGRDDHGAQVIAACAGRGISLIVDEHDAATPHHLNIMDQLGGRYSLFLSNGAPDPPINEPRIAEQIAAADTIFLSLCASSKKILHLLEGARAEILLDLHDYDGANPWYEDFIACADVIQLSDVAVADPGAVARRLLSGRAHQVVVTKAGKGAEIVTADTSIDVPPCPADMVDSNGAGDAFSVALWHAQRTGQSGLDAGGFAAAAAACAIESADLFPVNVSAADIAGRVRAHPQDHSTGTASR” was “not soluble”.
On to “MDIRKEFEHLQYFFDSYYNQTFYNAQLEEQFLRFLADEPEWVVRALKLEVEKLERIHHRRDTETWAKIEELVHENSMRYFSFEDGKTFIKVASLLLKDID”, for which the “soluble on expression in E. coli” value was “not soluble”.
“MEKAPLLLETVEQAVRILQESPFVAIWNYKVLSVQAGAVALALPAQPQFYRPGGIIQGGCLMTLADTAFWLAAMTELGIDAPIVTLEMKTHFLRAAQADVYCRAEVMKSGRRVTYGTATITDAAGQTLSHHTLTYLAA”: the “soluble on expression in E. coli” value was “not soluble”.
As for “MDTSQKYRSNNEVDSPQIEHDKQALPSIESLYWGLQQNQQIQGIEQTGEPNGDNQPPQLVIDQLSYDQQQQQPKQNCFDTHGNMDDNRGLYNLPQGAENGSGHLVATESHQLHPPNYNLQQAQTPPPTRHSQYVDAAPQAYGSGQLVPENQRQPESAPDRPYQIMNVGCNPQSAQQHAQMEIPTMSHQLIGTCHNWQSGSQQGTSQNRKDFAGMQSCYGKDQHHQSALNGYHQLQAQPNLYPQHVSNQRPQWAMDQLGYYQQHQQQGPTWSDQNGNEGDNGGLYNHPQGAENGSGHLAATESHQLLPPSNNLQQVQIPAPTRHSQYVGASHLAYGSGQLVPENQLQPEPAPDRSYRKMNVGCNSQYAQQHAQMDQVIGTCHNCQSDSQQGTSQNRDNLAGMKGCCVKDQYHEPAPSGYHPPQAQSNCYPNHPPNPNMNAGDQDRQHVQLNFYTDPGFQQNSHVPYEMQQGFQTTGMQGSYQQNNQPELLFDSNNGNQTVNNAPNGNYQEPVYPLLQEGPTWNNNDNHDYFPSDDSMSQTSQEPVSVESIRKKTKRAKNKLEARKSLQKKKDDLKASRKSWEEVKINHNNILSSNNSNEENIKTAFDQVLYPCFTNQQVIGTFNIIRSYDEVQEGFAQFENDKQNIISKVDYLMKTDRNLKKLRMAKEVSEKQWEQFETDKKNRKEDDKKNKINGGNKLNGKTKIVSSITIATRCSRSKDKKETDAFKHDAKVLKFESSKQTQIKLCLKKYCDKFYPGVRMLLQHNWKFLRDNALHSGQSVQLEKLIECLKTFHLTEHAEKEHNLENS”, the entry is “not soluble”; as for “MSLMTSKTSLALLCDFYEFTMSQGYFKNNKKDQICYFDIFFRKIPDSGSFAIFAGLEDILDFVENLSFDAEDIEFLRKQGIFDTEFLDFLANFKFKGEIYAMREGEVIFPNEPLLCIKATTIEAQLLETFLLLSLNHQSLIATKTNRIVRAAKDSKILEFGSRRAQGSEAALKGARAAFIGGCIGSACTLAGKIYNIPINGTMAHSWVQMFENELEAFKAYVKIYPKNPVFLIDTYDCLNSGLKNAIKVFKEFGIQEGGVRIDSGNLLELSLKIRQELDQAGLQKCKIIVSNALDEWSIKKLKEQNAPIDIFGVGERLITASSDPIFSCVYKLAALEDQGIKPKIKISENNEKSTLPHFKKLFRVYDKNTQKILFDELYVFDENPNQDENLERKELLELVYKEKRLLKKSSLNTIQDYTKEQISKLDESFLDLDRFVKFEVKLSPKLQNITEDLLKTRFEGHHHHHH”, “soluble”; as for “MPIGHSREVLVRLRDILALLADGCKTTSLIQQRLGLSHGRAKALIYVLEKEGRVTRVAFGNVALVCLSMDQYRQLVDGMIREVERLVTTNKLKFISPPRLHDLIIKDPQARKFFSSIIPIAHRTAIILSFLNHLLKMIYGEPYVKTDETVYLTANRKVHIEPPAK”, “soluble”.
The value for “MKLLHAIQTHAETYPQTDAFRSQGQSLTYQELWEQSDRAAAAIQKRISGEKKSPILVYGHMEPHMIVSFLGSVKAGHPYIPVDLSIPSERIAKIIESSGAELLIHAAGLSIDAVGQQIQTVSAEELLENEGGSVSQDQWVKEHETFYIIYTSGSTGNPKGVQISAANLQSFTDWICADFPVSGGKIFLNQAPFSFDLSVMDLYPCLQSGGTLHCVTKDAVNKPKVLFEELKKSGLNVWTSTPSFVQMCLMDPGFSQDLLPHADTFMFCGEVLPVSVAKALLERFPKAKIFNTYGPTEATVAVTSVEITNDVISRSESLPVGFAKPDMNIFIMDEEGQPLPEGEKGEIVIAGPSVSRGYLGEPELTEKAFFSHEGQWAYRTGDAGFIQDGQIFCQGRLDFQIKLHGYRMELEEIEFHVRQSQYVRSAVVIPYQPNGTVEYLIAAIVPEEHEFEKEFQLTSAIKKELAASLPAYMIPRKFIYQDHIQMTANGKIDRKRIGEEVLVRSHHHHHH” was “soluble”; that for “MSANLPPAFKPIAHYIKIANENASRDPVIYYWSLLCMALGPVETTFDEISWKLLQTSIRLEKDHINDRDSLREYIDEPGGVVNNCQRAQNISMEIEQKNVSCEKLREKIAKINQKILIGKGKLSEVNEELSKKQNFEESLKQKIEIMELQINKNQSKKDKEVKSINVLIRLVAYRKLTLIKEVMDLFKVKIDGGPASEAITTKNCQCQLIDTIRGLHIPQITHIFNHSEAPTLTALQNLTHLFNVICKVLHFAPKYPILTNLQIINPIDQKSSIFTEKCWKKKADREKLIEGMSWLSKNISHLRESCGIPTMATDRILGTLEEWIRLVIRKETVFERPINSIFSPANLLIDYQIPNISYHS” was “not soluble”; that for “MKGNRQRIQPKNIFQAVIDSPLSDQEKEVLTFLYQPIVGANAFSLYWLLLSETTDSEENGSLFHADLISLLDLSCQQLEEACYKLEGIGLLETYKKTDRELGDCYLYYLKAPETAARFFKDEVLALVLFNRVGQRKFDQLVQKFQPHPTKTEGYQNVSASFQEVYAFKEEQIVSEANRLTTIQETFSQKEKSKKISVSTDSFDWHYFVEGLHRLGLQLPEDEASFQEEVYVFHQLYGINELDMVDFASKSFDYYTSRILPKELVRTIHQAFDPDKKPQSTNVVTNKQAQLTVEEQQTYRYNALKMNGFSELDIQMIMDSEKNPPIQYLEALKNSRGGYTTPQERSLVKYLVAKSGLPTSVINILINYVYNIQQQPTLKAEYVNRIANEWGQSGIHSPEKAIEHVRELAKQSQTKQKQRQQNYSGKRQTVRQERLPEWADQPNDETKLSPEEQAELDRQIQEFLNQGGDQ” was “not soluble”.
The value for “MSLHNNIDAFTLKPRHVEQIRQALPEVAITVSASDSDFMDRLPDAEYALVWVFKPEWYATAPRLKALFTPAAGRDWVAADPSGRVMTCHGSFHGRIMRESLLSMMLYFNRRLGQSLEDQGRRMWGRPDYSGCVGLFSQRVMIVGLGALGQSMAELLKAFGAHVTGVKRNPESFAGSPCVDRVISFDALEEALPEADHVVLLLPGGTATDGIFTARHFNAMRPGAYLYNLGRGNCYREEDLVAALEDGRLAGAGLDVFAEEPLPASSPLWEQRNVLITPHSSAISREYLDLFIQEWLETLRKGAPQNEGHHHHHH” was “not soluble”; that for “MIKVDQHYFELIENYRECFNEEQFIARYSDILDKYDYIVGDYGYDQLRLKGFYKDSNKKAEMSKRFSNIQDYIFEYCNFGCPYFVLRHLSKQEVKKLIEEVHPSDVIDDDNKLQDVKIKPTIQDTEHLEHHHHHH” was “not soluble”; that for “MKARSKKSVGIVALALLMGKVYAAPTPAACPDVSVIKQHQEGQGFVYTAPAPNNQQWRGENPRGDAKDINSIAFKSANIRNRSAITGNAFVACDYEGNSSAGIRMSLETLKVATPVGKAWNGLSCSESNPSACTFEY” was “not soluble”.
On to “MFEVPITLTNRKFAQRRKLKYQYINYISRRFDRISKKSTTTDSLPTPENSAAENNDEEEGQNSEAGTYRRSVLQQKKRRRERHWRSVVGEIYSTTESETDSQEEETEEGGEHDTGIDKEDSDEERKFWKKYEKPEKSFEIWRTVSSQNKQPINKQKMTYHNFKKIEKIPLRKMEIPLLHCTKENKLYFQSISRGLEPLKTSTSEVRNYRTRHIVTLTDLLHLNVSRHNWSLAYKIFATLIRIPGVQIKSLWGIGVEILDNLSNSSSGLDFLQWMCQIYSSKSRFVQNINYRSIVPPFQTGSRTHTAKFAITYLWSSLINCQKSMEPSSNIIDKPFDTENDLLQELIDKISEWVLTPPFMEDAEVWFIYASCHLLKADTLSRQFVNDNKNNDLIGLDRDIKINQVIKHIHYVRTFLKICLDKGGFAVPSRLIENQLKSFESRLYGEAQDIQERDVANVYDSIDNSSVENSFGDVYETNAEFLDTQLMDLSPEDNGLDEMHYSDEDSSE”, for which the “soluble on expression in E. coli” value is recorded as “not soluble”.

The values above are taken from the DeepSol protein solubility set.
